The source of these data is patent US20250163127A1.

Values joined by “and” are separate entries in the source; they are usually repeats but may differ in a detail not shown here. Equal values may be shown once. Read-outs that look alike come from different tables or passages of the source.

Assay [1] concerns the target T1, TIGIT (human) (UniProt Q495A1).
T1 sequence: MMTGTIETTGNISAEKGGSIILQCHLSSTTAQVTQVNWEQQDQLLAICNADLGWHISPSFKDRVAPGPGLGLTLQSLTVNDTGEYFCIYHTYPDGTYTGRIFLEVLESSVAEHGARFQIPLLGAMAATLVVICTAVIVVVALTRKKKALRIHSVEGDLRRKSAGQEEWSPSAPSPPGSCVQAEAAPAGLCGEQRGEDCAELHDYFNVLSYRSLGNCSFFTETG
The assay is described as follows: flow cytometry, transfected HEK293; secondary reagent alone. (In general: A flow cytometer gives signals particle by particle.)

Assay [2] concerns the target T2, CD226 (human) (UniProt Q15762).
T2 sequence: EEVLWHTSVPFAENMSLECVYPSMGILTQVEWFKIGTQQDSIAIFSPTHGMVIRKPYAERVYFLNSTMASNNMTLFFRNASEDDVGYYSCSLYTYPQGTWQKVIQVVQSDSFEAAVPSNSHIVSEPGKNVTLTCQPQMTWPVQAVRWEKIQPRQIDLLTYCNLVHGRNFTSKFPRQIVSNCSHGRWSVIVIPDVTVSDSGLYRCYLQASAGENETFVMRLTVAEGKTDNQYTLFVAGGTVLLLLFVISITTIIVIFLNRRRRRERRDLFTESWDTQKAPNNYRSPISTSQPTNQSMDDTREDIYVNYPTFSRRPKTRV
The description is as above.

Assay [3] concerns the target CD112R (human) (UniProt Q6DKI7). The assay is described as above.
Assay [4] addresses T3, CD96 (human) (UniProt P40200).
T3 sequence: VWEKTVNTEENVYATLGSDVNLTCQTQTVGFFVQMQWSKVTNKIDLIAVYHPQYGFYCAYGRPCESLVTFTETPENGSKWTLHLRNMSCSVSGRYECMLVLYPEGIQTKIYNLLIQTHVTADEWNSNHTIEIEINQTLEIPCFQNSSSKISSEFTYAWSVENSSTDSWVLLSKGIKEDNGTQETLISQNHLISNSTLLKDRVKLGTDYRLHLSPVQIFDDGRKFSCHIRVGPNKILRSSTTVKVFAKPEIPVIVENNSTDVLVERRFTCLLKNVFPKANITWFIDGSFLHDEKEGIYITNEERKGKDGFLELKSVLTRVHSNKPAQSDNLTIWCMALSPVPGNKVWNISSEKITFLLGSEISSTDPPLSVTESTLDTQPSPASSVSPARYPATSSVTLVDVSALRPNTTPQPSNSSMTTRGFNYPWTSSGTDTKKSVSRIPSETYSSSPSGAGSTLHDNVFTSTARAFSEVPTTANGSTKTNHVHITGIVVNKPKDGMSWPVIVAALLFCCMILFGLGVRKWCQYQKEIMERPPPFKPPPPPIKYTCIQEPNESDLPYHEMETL
Described as above.

Assay [5] deals with T1, TIGIT (human). The assay is described as follows: flow cytometry on transfected HEK293 cells, 100 nM.
The target of assay [6] is T3, CD96 (human). Nature of the assay: flow cytometry on transfected HEK293 cells, 100 nM.
The target in assay [7] is T1, TIGIT (human). Nature of the assay: flow cytometry, transfected HEK293.
The target of assay [8] is CD112R (human) (UniProt Q6DKI7). The assay is described as follows: flow cytometry, transfected HEK293.
Sequence of CD112R (human) (Q6DKI7 whole entry, the tested form may be a part): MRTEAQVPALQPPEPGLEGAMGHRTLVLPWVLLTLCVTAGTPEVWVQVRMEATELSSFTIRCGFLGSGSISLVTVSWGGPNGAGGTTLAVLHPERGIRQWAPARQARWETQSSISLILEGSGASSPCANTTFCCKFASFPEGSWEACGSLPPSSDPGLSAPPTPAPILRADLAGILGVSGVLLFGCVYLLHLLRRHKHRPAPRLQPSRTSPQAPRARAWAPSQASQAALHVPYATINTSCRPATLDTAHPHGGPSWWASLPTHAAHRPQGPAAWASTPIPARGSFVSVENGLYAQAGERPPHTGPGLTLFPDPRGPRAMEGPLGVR
Assay [9] addresses T2, CD226 (human). Nature of the assay: flow cytometry, transfected HEK293.
In assay [10] the target is T3, CD96 (human). Nature of the assay: flow cytometry, transfected HEK293.
Assay [11] concerns the target T2, CD226 (human). Nature of the assay: flow cytometry, Fc fusion on Expi293 cells transfected with full-length human CD226.
In assay [12] the target is T1, TIGIT (human). The assay is described as follows: flow cytometry, Fc fusion on Expi293 cells transfected with full-length human TIGIT.
Assay [13] addresses CD112R (human) (UniProt Q6DKI7). Nature of the assay: flow cytometry, Fc fusion on Expi293 cells transfected with full-length human CD112R.
Assay [14] deals with T1, TIGIT (human). The assay is described as follows: flow cytometry, TIGIT-transfected Expi293 cells.
Assay [15] concerns the target T3, CD96 (human). The assay is described as follows: flow cytometry, CD96-transfected Expi293 cells.
Assay [16] concerns the target T3, CD96 (human). Nature of the assay: flow cytometry, CD96-transfected Expi293 cells; ratio to wild-type CD155.
Assay [17] has as its target T2, CD226 (human). The assay is described as follows: flow cytometry, CD226-transfected Expi293 cells.
A further assay has as its target CD80 (human). Nature of the assay: flow cytometry, cells expressing CD80, 20 nM.
The next assay concerns the target human PD-1 (human) (UniProt Q15116). The assay is described as follows: flow cytometry, cells expressing PD-1, 20 nM.
Another assay has as its target PD-L1 (human). The assay is described as follows: flow cytometry on HEK293 cells transfected with PD-L1; Fc control.
In a further assay the target is CTLA-4 (human). Nature of the assay: flow cytometry on HEK293 cells transfected with CTLA4; Fc control.
For assay [18], the target named is CD28 (human) (UniProt P10747). The assay is described as follows: flow cytometry on HEK293 cells transfected with CD28; Fc control.
The target of assay [19] is CD28, full-length, expressed on transfected cells (Homo sapiens (Human)) (UniProt P10747). Nature of the assay: flow cytometry, cells expressing target.
The target in assay [20] is CTLA-4, full-length, expressed on transfected cells (Homo sapiens (Human)) (UniProt P16410). The assay is described as follows: flow cytometry, cells expressing target.
Sequence of CTLA-4, full-length, expressed on transfected cells (Homo sapiens (Human)) (P16410 36-223): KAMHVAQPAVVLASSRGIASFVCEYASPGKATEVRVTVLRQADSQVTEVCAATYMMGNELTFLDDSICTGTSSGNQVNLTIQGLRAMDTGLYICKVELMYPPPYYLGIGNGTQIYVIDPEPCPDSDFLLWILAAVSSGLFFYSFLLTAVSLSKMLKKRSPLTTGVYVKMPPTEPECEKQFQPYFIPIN
Assay [21] concerns the target ICOS, full-length, expressed on transfected cells (Homo sapiens (Human)) (UniProt Q9Y6W8). Nature of the assay: flow cytometry, cells expressing target.
Assay [22] concerns the target CD28 (human) (UniProt P10747). Nature of the assay: flow cytometry, transfected cells.
In assay [23] the target is ICOS as used in the OD read-out of Table E15A (Homo sapiens (Human)) (UniProt Q9Y6W8). The assay is described as follows: OD read-out, format not told.
The target in assay [24] is CD28 (human) (UniProt P10747). The assay is described as follows: flow cytometry, transfected cells. This is another data set of the same source.

Sequence of CD112 ECD-Fc (Fc fusion) (chain): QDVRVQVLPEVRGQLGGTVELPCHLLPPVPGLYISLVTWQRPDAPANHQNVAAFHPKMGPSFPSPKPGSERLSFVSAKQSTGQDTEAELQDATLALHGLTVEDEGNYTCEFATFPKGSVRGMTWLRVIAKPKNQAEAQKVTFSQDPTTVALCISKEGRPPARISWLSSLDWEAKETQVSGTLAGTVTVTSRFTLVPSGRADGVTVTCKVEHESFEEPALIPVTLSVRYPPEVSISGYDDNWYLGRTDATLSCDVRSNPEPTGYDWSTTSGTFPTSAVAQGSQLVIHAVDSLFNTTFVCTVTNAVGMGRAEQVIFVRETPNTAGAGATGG
Sequence of ICOS, full-length, expressed on transfected cells (Homo sapiens (Human)) (Q9Y6W8 21-199 limits assumed): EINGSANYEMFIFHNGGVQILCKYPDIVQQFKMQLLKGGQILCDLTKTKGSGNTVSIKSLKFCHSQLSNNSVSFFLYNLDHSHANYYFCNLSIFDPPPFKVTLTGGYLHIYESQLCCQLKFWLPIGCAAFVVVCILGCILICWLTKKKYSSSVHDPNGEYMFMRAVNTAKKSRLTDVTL

Regarding Anti-huFc PE (tool reagent), the MFI at 20 nM came out at 1140 with TIGIT (human) [1], 1010 with CD226 (human) [2], 1010 in the assay with CD112R (human) [3] and 1060 in the assay with CD96 (human) [4].

For CD112 ECD-Fc (Fc fusion), the MFI at 100 nM with TIGIT (human) [5] stood at 29200 MFI; with CD96 (human) [6] it was 1100 MFI.

For CD112 IgV-Fc A112V (Fc fusion), the MFI at 20 nM with TIGIT (human) [7] is 69700; with CD112R (human) [8] it was 1140 and 1110.

Regarding CD112 IgV-Fc Y33H/A112V (Fc fusion), the Fold Increase to WT IgV with TIGIT (human) [7] was 5.09 fold; with CD226 (human) [9] it was 1.28 fold; with CD112R (human) [8] it was 0.69 fold; with CD96 (human) [10], 1.25 fold. In addition, the MFI at 20 nM with TIGIT (human) [7] worked out at 178000; with CD226 (human) [9], 13800; with CD112R (human) [8], 1150; with CD96 (human) [10], 3120.

CD112 N106Y, A112V (Fc fusion): the MFI stood at 15300 MFI in the assay with CD226 (human) [11], 6040 MFI with TIGIT (human) [12] and 1970 MFI in the assay with CD112R (human) [13]. Besides, the MFI parental ratio (parental ratio) in the assay with CD226 (human) [11] amounted to 0.06; in the assay with CD112R (human) [13] it was 1.36.

Regarding CD112 Y33H, A112V (Fc fusion), the MFI came to 231000 MFI with CD226 (human) [11] and 99000 MFI with TIGIT (human) [12].

Take CD155 IgV-Fc A81V, L83P (Fc fusion): the MFI was 2910 with TIGIT (human) [14] and 2620 with CD96 (human) [15].

Regarding “CD155 IgV-Fc P18L, L79V, F91S (Fc fusion)”, the MFI parental ratio in the assay with CD96 (human) [16] was 1.1. For the same substance, the MFI with TIGIT (human) [14] was 4070; with CD226 (human) [17], 5140; with CD96 (human) [15] it was 3280.

As for “CD155 IgV-Fc P18T, F91S, R94H (Fc fusion)”, the MFI parental ratio with CD96 (human) [16] is 0.8. The values for the MFI in the assay with TIGIT (human) [14], in the assay with CD226 (human) [17] and in the assay with CD96 (human) [15] were 2940, 3590 and 2510, respectively.

As for Fc Control, the values for the MFI at 20 nM with CD80 (human) and in the assay with human PD-1 (human) were 132 MFI and 59 MFI, respectively.

For the substance Fc only, the MFI at 22.2 nM in the assay with PD-L1 (human) is 4740 MFI. Further, the MFI at 66.6 nM with CTLA-4 (human) was found to be 5960 MFI; in the assay with CD28 (human) [18], 2590 MFI.

In the case of ICOSL ECD-Fc F138L/L203P (Fc fusion), the MFI came out at 1510 MFI in [19], 2150 MFI in assay [20] and 53800 MFI in [21].

As for “ICOSL ECD-Fc N30D/K42E/N52S/H115R/F172S/N194D (Fc fusion)”, the MFI with CD28 (human) [22] came out at 4400 MFI.

For the substance “ICOSL ECD-Fc N52H/N57Y/Q100P (Fc fusion)”, the OD in assay [23] was found to be 1.57 OD. Besides, in assay [19], the MFI is 447 MFI and the parental ratio is 24.8 ratio to WT.

As for “ICOSL ECD-Fc N52Q/N84Q/N168Q (Fc fusion)”, the MFI with CD28 (human) [24] turned out to be 1580 MFI.

As for ICOSL ECD-Fc N52S/E220G (Fc fusion), the MFI in assay [20] came to 1800 MFI.

With “ICOSL ECD-Fc N52S/S130G/Y152C (Fc fusion)”, in assay [23], the OD worked out at 0.16 OD and the parental ratio is 0.19 ratio to WT. In [19], the MFI was 24 MFI.
